Legend:
[1] = molecular target: T1, high molecular weight kininogen (HK) (UniProt P01042 19-644); assay: solid phase ELISA, peptide on the plate
T1 sequence (looked up): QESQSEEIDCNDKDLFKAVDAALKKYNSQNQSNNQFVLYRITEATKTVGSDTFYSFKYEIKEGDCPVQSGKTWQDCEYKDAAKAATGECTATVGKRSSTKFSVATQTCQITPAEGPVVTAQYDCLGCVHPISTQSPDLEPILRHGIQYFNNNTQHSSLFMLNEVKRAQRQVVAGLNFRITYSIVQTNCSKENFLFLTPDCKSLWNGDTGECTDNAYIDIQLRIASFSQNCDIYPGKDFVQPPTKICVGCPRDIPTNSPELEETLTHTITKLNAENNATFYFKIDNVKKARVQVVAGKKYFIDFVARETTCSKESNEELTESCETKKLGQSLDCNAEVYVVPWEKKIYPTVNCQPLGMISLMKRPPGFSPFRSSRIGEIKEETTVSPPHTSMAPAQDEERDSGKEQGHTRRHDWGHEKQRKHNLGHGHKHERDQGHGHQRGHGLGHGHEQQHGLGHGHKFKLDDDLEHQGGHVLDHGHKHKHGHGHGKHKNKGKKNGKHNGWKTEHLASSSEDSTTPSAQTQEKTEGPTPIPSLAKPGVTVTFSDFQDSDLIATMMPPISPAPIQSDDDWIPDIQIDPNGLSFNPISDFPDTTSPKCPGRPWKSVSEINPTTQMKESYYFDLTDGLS
Description: Several peptides were synthesized that correspond with the gC1q-R domains of very high negative charge and, which based on their location in the crystal structure on the solution-face, are hypothesized to interact with solution-phase ligands.

[2] = molecular target: T1, high molecular weight kininogen (HK); assay: HK binding to recombinant gC1q-R deletion mutants (FIG. 7)

B1: gC1q-R peptide (amino acids 190-202) (peptide)
peptide: EDEVGQEDEAESD
notes: Synthetic peptide coated on ELISA wells
**Q.** Does B1 bind [1]?
**A.** Result: binds

B2: gC1q-R deletion mutant lacking residues 204-218 (receptor, human, UniProt Q07021 74-282, looked up)
chain: LHTDGDKAFVDFLSDEIKEERKIQKHKTLPKMSGGWELELNGTEAKLVRKVAGEKITVTFNINNSIPPTFDGEEEPSQGQKVEEQEPELTSTPNFVVEVIKNDDGKKALVLDCHYPEDEVGQEDEAESDIWKDTNYTLNTDSLDWALYDHLMDFLADRGVDNTFADELVELSTALEHQEYITFLEDLKSFVKSQ
notes: also called mutant lacking these residues
**Q.** Does B2 bind [2]?
**A.** Result: no binding

Reference: patent publication US20120082676A1 (RESEARCH FOUNDATION OF STATE UNIVERSITY OF NEW YORK, published 2012)
